# Measurements as given in PMC10213629 (2023).
# T1: PAO1 Hfq protein, purified (Pseudomonas aeruginosa PAO1, UniProt Q9HUM0 1-82)
# T1 chain: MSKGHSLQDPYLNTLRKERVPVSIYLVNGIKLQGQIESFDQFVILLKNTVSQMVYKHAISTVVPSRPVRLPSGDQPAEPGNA
# B1: CrcA (PA1677), His-tag removed (natural protein)
# chain: MPHPLTLLQISGRGYPPAPLRQSTLLIIDAQEEYRSGALRLPGLDAAAAEIGVLVQAARASGTPIVHVRHLGIQGGLFDPQGPRGQFLPELQPEAGEKVVEKRLPNAFSGTELHDLLQNHGRLDLIVCGFMTHSSVSTTVRAAKDYGYRCTLADSACATRDIPTLNGGVLSAADLQRAEIAALGDNFAAIVAQARELL
# B2: Crc (catabolite repression control protein), His-tag removed (natural protein)
# chain: MRIISVNVNGIQAAAERGLLSWLQAQNADVICLQDTRASAFDLDDPSFQLDGYFLYACDAELPEQGGVALYSRLQPKAVISGLGFETADRYGRYLQADFDKVSIATLLLPSGQSGDESLNQKFKFMDDFTHYLSKQRRKRREYIYCGSLYVAHQKMDVKNWRECQQMPGFLAPERAWLDEVFGNLGYADALREVSREGDQFSWWPDSEQAEMLNLGWRFDYQVLTPGLRRFVRNAKLPRQPRFSQHAPLIVDYDWQLSI
# What was measured:
# [1] = biological target: Strep-CrcA (Strep-PA1677; catabolite repression control protein antagonist) (Pseudomonas aeruginosa PAO1); assay: SEC-MALS; Strep-CrcA; experimental mass compared with the expected mass of a dimer
# [2] = biological target: B1; assay: grating-coupled interferometry; CrcA immobilised (9.5 ng/mm^2); Crc 20 μM to 156.25 nM; ES-buffer, 25°C; equilibration curve analysis
# [3] = biological target: B1; assay: grating-coupled interferometry; CrcA immobilised by amine coupling (9.5 ng/mm^2); Crc 20 μM to 156.25 nM; ES-buffer, 25°C; heterogeneous ligand model
# [4] = biological target: B2; assay: immobilized CrcA; kd1 heterogeneous ligand
# [5] = biological target: B2; assay: immobilized CrcA; kd2 heterogeneous ligand, second site
# [6] = biological target: B2; assay: immobilized CrcA; KD2 heterogeneous ligand, second site
# [7] = biological target: Crc (catabolite repression control protein), His-tag removed (Pseudomonas aeruginosa PAO1) (UniProt Q51380); assay: grating-coupled interferometry; Crc immobilised (15 pg/mm^2); CrcA 20 μM to 156.25 nM; ES-buffer, 25°C; equilibration curve analysis
# [8] = biological target: Crc (catabolite repression control protein), His-tag removed (Pseudomonas aeruginosa PAO1) (UniProt Q51380); assay: grating-coupled interferometry; Crc immobilised by amine coupling (15 pg/mm^2); CrcA 20 μM to 156.25 nM; ES-buffer, 25°C; 1:1 kinetic fit
# [9] = biological target: B1; assay: immobilized Crc
# [10] = biological target: T1, PAO1 Hfq protein, purified; assay: Hfq in complex with amiE6ARN RNA; kd1 heterogeneous ligand
# [11] = biological target: T1, PAO1 Hfq protein, purified; assay: Hfq in complex with amiE6ARN RNA; KD1 heterogeneous ligand
# [12] = biological target: T1, PAO1 Hfq protein, purified; assay: Hfq in complex with amiE6ARN RNA; kd2 heterogeneous ligand, second site
molecule,measurement,setting,value
Strep-CrcA (Strep-PA1677; catabolite repression control protein antagonist) (natural protein),stoichiometry N,[1],2
"Crc (catabolite repression control protein), His-tag removed (from UniProt Q51380 1-259) (natural protein)",Kd,[2],7.14 µM
same,KD1,[3],8.35 µM
B1,koff,[4],0.653 s⁻¹
same,koff,[5],0.0454 s⁻¹
same,Kd,[6],3.93 µM
same,Kd,[7],12 µM
same,Kd,[8],11 µM
B2,koff,[9],2.45 s⁻¹
same,koff,[10],0.374 s⁻¹
same,Kd,[11],0.402 µM
same,koff,[12],0.00786 s⁻¹
